Tests used:
Conditions in all cases: tags: GST
[1] = molecular target: T1, UP1 (shortened hnRNP A1), GST fusion (UniProt P09651 P09651:1-196); assay: EMSA
[2] = molecular target: T1, UP1 (shortened hnRNP A1), GST fusion; assay: EMSA; best binder; 0.5 and 1 ug GST-UP1
Protocol: (§1) A shortened version of recombinant hnRNP A1 (GST-UP1) was used for testing binding affinity. Each labeled oligo was incubated with increasing amounts of GST-UP1 (0.5 and 1 μg). The TS10 oligo is a telomeric DNA oligo of 60 nt containing nine high-affinity A1 binding sites. Complexes were fractionated in a 5% acrylamide gel. The position of the free oligos and complexes is shown. (C) Pre-mRNAs were incubated in a HeLa extract for 2 hours in the presence of increasing amounts of oligonucleotides (0.01, 0.02, 0.05, 0.1, 0.5 pmoles in 12.5 μl reaction). The RNA was extracted and fractionated on a denaturing 11% acrylamide gel. The position of the pre-mRNAs, splicing intermediates and products is indicated. (D) Based on the results obtained in panel C, the relative use of proximal and distal splicing was compiled, expressed as a ratio of percentages and plotted relative to the amount of oligo used. (E) Labeled pre-mRNAs were incubated as above in the presence of increasing amounts of oligonucleotides (0.01, 0.02, 0.05, 0.1, 0.5 pmoles in 12.5 μl reaction). The RNA was extracted and fractionated on a denaturing 11% acrylamide gel. The position of the pre-mRNAs, splicing intermediates and products is indicated. (F) Labeled pre-mRNAs were incubated with increasing amounts of oligonucleotides (0.01, 0.02, 0.05, 0.1, 0.5 pmoles in 12.5 μl reaction). […]

[3] = molecular target: T1, UP1 (shortened hnRNP A1), GST fusion; assay: EMSA; remark: listed apart in the source
Protocol: as §1

[4] = molecular target: T1, UP1 (shortened hnRNP A1), GST fusion; assay: EMSA; best UP1 binder (printed X4-A1W)
[5] = molecular target: T1, UP1 (shortened hnRNP A1), GST fusion; assay: EMSA; text prints X-M4A1W as non-binder, evidently X-M4A1M

T1 sequence (P09651 1-196, one chain of several): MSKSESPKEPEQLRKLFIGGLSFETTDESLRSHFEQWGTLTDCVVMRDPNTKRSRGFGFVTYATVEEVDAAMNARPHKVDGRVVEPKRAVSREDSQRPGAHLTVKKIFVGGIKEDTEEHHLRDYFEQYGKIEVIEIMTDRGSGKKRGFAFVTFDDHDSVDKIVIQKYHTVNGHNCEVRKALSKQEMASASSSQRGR

UUCUUACCCAGCCGCCGUUC (ssRNA, 2'-OMe) [X-5]
binding result [1]: no binding

UAUGAUAGGGACUUAGGGUGUACCACCGCCAAAGCCGCCU (ssRNA) [C5-M4A1W]
binding result [2]: binds

UAUGAUACGCACUUACGCUGUACCACCGCCAAAGCCGCCU (ssRNA) [C5-M4A1M]
binding result [3]: no binding

UACCACCGCCAAAGCCGCCU (ssRNA) [C5-M4]
binding result [3]: no binding

UAUGAUAGGGACUUAGGGUGGCCGCCGUUCUCCUGGAUCC (ssRNA, 2'-OMe) [X-M4A1W]
binding result [4]: binds

UAUGAUACGCACUUACGCUGGCCGCCGUUCUCCUGGAUCC (ssRNA, 2'-OMe) [X-M4A1M]
binding result [5]: no binding

GCCGCCGUUCUCCUGGAUCC (ssRNA, 2'-OMe) [X-M4]
binding result [1]: no binding

Source: patent US20060058253, “Methods to reprogram splice site selection in pre-messenger rnas” (published 2006)
